In this test the target is Human mitochondrial chaperonin mHsp60 (human), P10809. Kind of test: cryo-EM structure; ~9 mg/ml mHsp60 on Quantifoil holey carbon grids, Titan Krios 300 kV, C7 symmetry imposed, combined map at 3.4 Å; 2D class averages show seven-fold symmetry. Particulars: remark: other sources report otherwise.

In general, stoichiometry N refers to a count of units in the complex or per binding partner.

B1: Human mitochondrial chaperonin mHsp60, P10809 27-573 (natural protein)
chain: AKDVKFGADARALMLQGVDLLADAVAVTMGPKGRTVIIEQSWGSPKVTKDGVTVAKSIDLKDKYKNIGAKLVQDVANNTNEEAGDGTTTATVLARSIAKEGFEKISKGANPVEIRRGVMLAVDAVIAELKKQSKPVTTPEEIAQVATISANGDKEIGNIISDAMKKVGRKGVITVKDGKTLNDELEIIEGMKFDRGYISPYFINTSKGQKCEFQDAYVLLSEKKISSIQSIVPALEIANAHRKPLVIIAEDVDGEALSTLVLNRLKVGLQVVAVKAPGFGDNRKNQLKDMAIATGGAVFGEEGLTLNLEDVQPHDLGKVGEVIVTKDDAMLLKGKGDKAQIEKRIQEIIEQLDVTTSEYEKEKLNERLAKLSDGVAVLKVGGTSDVEVNEKKDRVTDALNATRAAVEEGIVLGGGCALLRCIPALDSLTPANEDQKIGIEIIKRTLKIPAMTIAKNAGVEGSLIVEKIMQSSSEVGYDAMAGDFVNMVEKGIIDPTKVVRTALLDAAGVASLLTTAEVVVTEIPKEEKDPGMGAMGGMGGGMGGGMF
As to B1, the stoichiometry N turned out to be 7.

(Values after article PMC8292379.)
